How the values were obtained:
[1] = target: human IL-13 wild type (human) (UniProt P35225); experiment: column 'Affinity, KD (nM)', hIL-13wt; method not given
[2] = target: human IL-13 variant (R130Q) (human) (UniProt P35225)
[3] = target: cynomolgus monkey rIL-13 (cynomolgus monkey) (UniProt Q0PW92)
[4] = target: human IL-13 wild type (human) (UniProt P35225)
[5] = target: human IL-13 variant (R130Q) (human) (UniProt P35225); experiment: column 'Affinity, KD (nM)', hIL-13v; method not given

Sequence of human IL-13 variant (R130Q) (human) (P35225 35-146 limits assumed, stated change not applied): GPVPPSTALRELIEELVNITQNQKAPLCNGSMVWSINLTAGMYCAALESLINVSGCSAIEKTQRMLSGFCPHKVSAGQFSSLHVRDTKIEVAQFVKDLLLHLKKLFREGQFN
Sequence of human IL-13 wild type (human) (P35225 other isoform, or with tags, fused parts or gaps limits assumed): as the sequence (P35225 35-146 limits assumed, stated change not applied) above, with Q110R counted along it
Sequence of cynomolgus monkey rIL-13 (cynomolgus monkey) (Q0PW92 entry or part of it): as the sequence (P35225 35-146 limits assumed, stated change not applied) above, with G1S, R10K, M42V, S67N, H83R, L100V counted along it

Kd [1]: 0.075 nM
Potency, IC50 (neutralisation of hIL-13v; assay not given) [2]: 0.17 nM
Potency, IC50 (neutralisation of Cyno IL-13; assay not given) [3]: 0.9 nM
Potency, IC50 (neutralisation of hIL-13wt; assay not given) [4]: 0.19 nM
Kd [5]: 0.076 nM
B1: 13C5, murine version (antibody, from another filing, V domains shown)
VH: QVTLKESGPGILQPSQTLSLTCSFSGFSLSTSDMGVDWIRQPSGKGLEWLAHIWWDDVKRYNPALKSRLTISKDTSSSQVFLMLASVDTADTATYYCARTVSSGYIYYAMDYWGQGTSVTVSS
VL: DIQMTQTASSLSASLGDRVTISCRASQDIRNYLNWYQRKPDGTVKLLIFYTSKLHSGVPSRFSGSGSGTDYSLTIRNLEQEDIATYFCQQGNTLPLTFGGGTKLEIKR

From patent US20180079808A1
